T1: factor H binding protein (fHbp) variant 1.1 (Neisseria meningitidis MC58, fHbp v1.1, strain)
T1 construct: also called fHbp v1.1; fHbp v1; source: E. coli BL21(DE3), purified (Ni-NTA; SEC when necessary)
T1 chain: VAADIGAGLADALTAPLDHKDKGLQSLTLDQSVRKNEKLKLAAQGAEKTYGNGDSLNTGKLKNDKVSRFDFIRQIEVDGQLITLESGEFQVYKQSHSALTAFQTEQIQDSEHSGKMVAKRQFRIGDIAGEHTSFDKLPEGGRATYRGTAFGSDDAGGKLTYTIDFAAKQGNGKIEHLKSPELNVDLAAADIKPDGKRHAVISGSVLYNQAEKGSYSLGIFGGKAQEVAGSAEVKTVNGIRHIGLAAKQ


Experiments:
Experiment in all cases: SPR
Details in all cases: both partners purified
[1] = molecular target: T1, factor H binding protein (fHbp) variant …
[2] = molecular target: T2, factor H binding protein (fHbp) variant 2.16 (Neisseria meningitidis 961-5945, UniProt Q6VS19, strain)
T2 construct: also called fHbp v2.16; fHbp v2; source: E. coli BL21(DE3), purified (Ni-NTA; SEC when necessary)

[3] = molecular target: T3, factor H binding protein (fHbp) variant 3.28 (Neisseria meningitidis M1239, fHbp v3.28, UniProt Q19KF7, strain)
T3 construct: also called fHbp v3.28; fHbp v3; source: E. coli BL21(DE3), purified (Ni-NTA; SEC when necessary)

Binder	koff [1] [s⁻¹]	kon [1] [M⁻¹ s⁻¹]	koff [2] [s⁻¹]	kon [2] [M⁻¹ s⁻¹]	koff [3] [s⁻¹]	kon [3] [M⁻¹ s⁻¹]	Kd [2] [nM]
human anti-fHbp mAb 4F9 (antibody, V domains shown, source: Expi293, transient transfection, purified (protein G Sepharose)) VH: QVQLVQSGGGLVKPGGSLRLSCAASGFPFSSYYMSWIRQAPGKGLEWVSDINNSGNVKEYADFVKGRLTISRDNVKNSMYLHMNSLRVEDTAVYYCARNRGRFDVWGQGTLVTVSA VL: EIVMTQSPGTLSLSPGETATLSCRASQMISSPFLAWYQQRRGQAPRLLIYGASTRATDTPDRFRGSGSGTDFILTISRLEPEDFAVYYCQHYDDSPFTFGQGTKLEIK	0.00251	3.29e+07	3.3e-05	1.16e+06	0.00095	380000	–
human anti-fHbp mAb 4B3 (antibody, V domains shown, source: Expi293, transient transfection, purified (protein G Sepharose)) VH: QVQLVQSGGGLVKPGGSLRLSCAASGFPFSSYYMSWIRQAPGKGLEWVSDINNSGNVKEYADFVKGRLTISRDNVKNSMYLHMNSLRVEDTAVYYCARNRGRFDVWGQGTLVTVSA VL: EIVMTQSPGTLSLSPGETATLSCRASQMISSPFLAWYQQRRGQAPRLLIYGASTRATDTPDRFRGSGSGTDFILTISRLEPEDFAVYYCQYYDDSPFTFGQGTKLEIK	0.000217	661000	7.98e-05	2.73e+06	0.0002	315000	–
human anti-fHbp mAb 3G7 (antibody, V domains shown, source: Expi293, transient transfection, purified (protein G Sepharose)) VH: EVQLLQSGGGLVKPGGSLRLSCAASGFPFSSYYMSWIRQAPGKGLEWVSDINNSGNVKEYADFVKGRLTISRDNVKNSMYLHMNSLRVEDTAVYYCARNRGRFDVWGQGTLVTVSA VL: EIVLTQSPGTLSLSPGETATLSCRASQMISSPFLAWYQQRRGQAPRLLIYGASTRATDTPDRFRGSGSGTDFILTISRLEPEDFAVYYCQYYDDSPFTFGQGTKLEIK	0.000311	903000	3.89e-05	741000	0.000176	258000 ± 0.01	–
human anti-fHbp mAb 5F12 (antibody, V domains shown, source: Expi293, transient transfection, purified (protein G Sepharose)) VH: EVQLVESGGDLVKPGGSLRLSCAASGFTFSNYTMNWVRQAPGKGLEWVSSITSSSSFKYYADSVKGRFTISRDNAKNSVFLQMNSLRAEDTAIYYCARRIDSSDQDWFYYYGMDVWGLGTTVTVSS VL: QSVLTQPPSVSAAPGQRVTISCSGSSSNIGDNYISWYQQLPGTAPKLLIYDNDQRPSGTPDRFSASKSGTSATLGVTGLQTGDEADYYCGTWDSSLNAPVFGSGTKVTVL	0.000846	854000	0.00188	690000	0.00613	350000	–
human anti-fHbp mAb 5C6 (antibody, V domains shown, source: Expi293, transient transfection, purified (protein G Sepharose)) VH: EVQLLESGGGLVQPGGSLRLSCAASGFTFSSYAMSWVRQTPGKGLEWVSAISGSGGSTYYADSVQGRFTISRDNSKNTLYLQINSLRAEDTAVYYCAKDPGFVLSSGWYYFDYWGQGTLVTVSS VL: not shown	0.000454	420000	0.000345	204000	0.00071	350000	–
human anti-fHbp mAb 1D1 (antibody, V domains shown, source: Expi293, transient transfection, purified (protein G Sepharose)) VH: QVQLVGSGGGLVKPGGSLRLSCAASGFTFSSYTMNWVRQAPGKGLEWVSSISSSSGYIYYADSLKGRFTISRDDAKNSLFLQMNSLRAEDTAVYFCARDKVLPAPPGFYGLDVWGPGTTVTVSS VL: QSVVTQPPSVSAAPGQKVTISCSGSSSNIEDNFVSWYQQLPGTAPKLLIYDNNQRPSGIPDRFSGSKSGTSATLGITGLQTGDEADYYCATWDNSLSARVFGGGTKLTVL	0.00154	1.81e+06	0.00264	450000	0.000642	371000	–
human anti-fHbp mAb 3F1 (antibody, V domains shown, source: Expi293, transient transfection, purified (protein G Sepharose)) VH: EVHLVESGGGLVKPGGSLRLSCAASGFTFSSYTMNWVRQAPGKGLEWVSSISSSSGYIYYADSLKGRFTISRDNAKNSLFLQMNSLRAEDTAVYFCARDKVLPAPPGFYGLDVWGPGTTVTVSS VL: QSVVTQPPSVSAAPGQKVTISCSGSSSNIEDNFVSWYQQLPGTAPKLLIYDNNQRPSGIPDRFSGSKSGTSATLGITGLQTGDEADYYCATWDNSLSARVFGGGTKLTVL	0.000917	885000	0.00478	382000	0.00063	340000	–
human anti-fHbp mAb 3B7 (antibody, V domains shown, source: Expi293, transient transfection, purified (protein G Sepharose)) VH: EVQLVQSGAEVKKPGSSVKVSCKASGDTFSNYPISWVRQAPGQGLEWMGGIIPIFGTANYAQKFQGRVTITADESTSTPYMELSSLRSEDTAVYYCARGDTAMAPFDYWGQGTLVTVSS VL: SYVLTQPPSVSVAPGKTARITCGGNSIGSKSVHWYQQKPGQAPVLVIYYDSDRPSGVPERISGSNSGNTATLTISRVEAGDEADYYCQVWDSSSDSWVFGGGTKLTVL	0.00442	1.71e+06	7.13e-06	1.32e+06	0.00083	382000	–
human anti-fHbp mAb 2C8 (antibody, V domains shown, source: Expi293, transient transfection, purified (protein G Sepharose)) VH: QVQLVQSGAEVKKPGSSVKVSCKASGGTVINYPISWVRQVPGQGLEWMGRLVPLFGTPNYGQKFQGRITITADKSTSAAYMELIGLKSEDTAVYYCARGDTAMAPFDYWGHGTLVTVSS VL: QLVLTQPPSVSVAPGKTATITCGGNNVGGKTVHWYQQKPGQAPVLVMSYDSDRPSGIPERFSGSNSGNTATLTISRVEAEDEADYYCQVWHGNDDHWVFGGGTKLTVL	0.000388	1.16e+06	0.000689	1.31e+07	0.0002	430000	–
human anti-fHbp mAb 1E10 (antibody, V domains shown, source: Expi293, transient transfection, purified (protein G Sepharose)) VH: QVQLVESGGDLVKPGGSLRLSCVASGFTFSSYTMNWVRQAPGKGLEWVSSITSSSSFTYYADSVKGRFIISRDNAKNSLSLQMNNLRVEDTATYYCARRKDSSDYDWYYYYGMDVWGLGTTVTVSS VL: QSVVTQPPSVSAAPGQKVTISCSGSSSNIGDNYMSWYQQIPGTAPKLLIFDNDQRPSGIPDRFSASKSGTSATLDITGFQTGDEADYYCGTWDSGLSAPVFGGGTKLTVL	0.000657	427000	0.00079	630000	0.000495	390000	–
human anti-fHbp mAb 2G1 (antibody, V domains shown, source: Expi293, transient transfection, purified (protein G Sepharose)) VH: QVQLVESGGDLVKPGGSLRLSCVASGFTFSSYTMNWVRQAPGKGLEWVSSITSSSSFTYYADSVKGRFIISRDNAKNSLSLQMNNLRVEDTATYYCARRKDSSDYDWYYYYGMDVWGLGTTVTVSS VL: QSVLTQPPSVSAAPGQKVTISCSGSSSNIGDNYMSWYQQIPGTAPKLLIFDNDQRPSGIPDRFSASKSGTSATLDITGFQTGDEADYYCGTWDSGLSAPVFGGGTKLTVL	–	–	0.00045	270000	0.000584	332000	–
human anti-fHbp mAb 4B10 (antibody, V domains shown, source: Expi293, transient transfection, purified (protein G Sepharose)) VH: EVQLVESGGGLVKPGGSLRLSCAASGFAFSTYSLHWVRQAPGKGLEWVSAITSSGSFLYYADSLKGRFTVSRDNAKNSLFLQMNSLRAGDTAVYYCARALQVEDGFPMFSGLDVWGQGTTVTVSS VL: QTVVTQPPSVSEAPRQRVAISCSGSSSNIGDNSVSWYQQLPGKAPKLLIYDDDLLPSGVSDRFSASKSGTSASLAISGLQSEDEAEYYCAAWDDSLKGVVFGGGTKLTVL	0.0025	7.7e+06	0.000706	1.57e+07	0.000473	284000	0.0451

— publication PMC7556464, “4CMenB vaccine induces elite cross-protective human antibodies that compete with human factor H for binding to meningococcal fHbp” (PLoS Pathogens, 2020)
